Assay results taken from paper PMC9604325 (International Journal of Molecular Sciences, 2022).

Columns and labels:
Assay type in all cases: cell-based, mouse
HT-22 cells [1] = assay: Internalization of Aβ(1-42) in living HT-22 cells (red fluorescence of Aβ(1-42)*555, calibration curve); conditions: 2 μM Aβ(1-42) total (unlabeled plus Aβ(1-42)*555) in culture medium, 37 °C, 5% CO2, red fluorescence microscopy, calibration with Aβ(1-42)*555 in fixed permeabilized cells, mean ± SEM
Method: Then, the cells were washed once with 1 mL of MLocke’s K5, and the 35 mm dishes were placed in the holder of the microscope at 37 °C for RF imaging. The fluorescence microscopy images of the HT-22 cells were acquired with a Hamamatsu Orca-R^2 CCD camera (binning mode 2 × 2) camera (Hamamatsu, Hamamatsu-city, Japan) attached to a Nikon Diaphot 300 epifluorescence microscope (Tokyo, Japan) with an NCF Plan ELWD 40× objective, using an excitation filter of 556 nm and a dichroic mirror of 580 nm with an emission filter of 590 nm, and a 0.06 s exposure time. The ROI tool of the HCImage software was used for the quantitative analysis. The average fluorescence intensity readings per pixel in HT-22 cells were taken from several fields for a total number of 80 cells and after the subtraction of the autofluorescence. […]
Supplementary Figure S1. Calibration data were obtained with […]
medium of fixed and permeabilized HT-22 cells to calculate the internalized concentration of Aβ(1–42) in living HT-22 cells. The […]
monomers/L. The results shown are the mean ± SEM of
(also on this page, place not known: Fluorescence Intensity per pixel (A.U.))

HT-22 cells [2] = assay: Mitochondrial membrane potential, TMRE assay; conditions: 2 μM Aβ(1-42), 2 h or 5 h; p > 0.05
Method: Mitochondrial depolarization was monitored with the fluorescent dye TMRE, as previously described, with small changes. […] Then, the HT-22 culture dishes were placed in the thermostatic plate at 37 °C of the inverted epifluorescence microscope and the fluorescence kinetic was recorded at 556 nm excitation filter and a dichroic mirror of 580 nm with an emission filter of 590 nm and a time of exposure 0.01 s. To assess the level of the mitochondrial membrane depolarization, 5 μM of a potent mitochondrial oxidative phosphorylation uncoupler FCCP was added to the medium. The region of interest (ROI) tool of the HCImage software was used for the quantitative analysis. The average fluorescence intensity readings per pixel in the HT-22 cells were taken from several fields for a total number of 80 cells.

HT-22 cells [3] = assay: Cellular GSH level, monochlorobimane fluorescence; conditions: 2 μM Aβ(1-42), 2 h or 5 h; 10 μM MCB
Method: The cellular GSH level was monitored with MCB using fluorescence microscopy, as described in our previous work. Images were acquired with a Nikon Diaphot 300 epifluorescence microscope, with an excitation filter of 380 nm.
(A) Representative microscopy images
(B) Means of the average fluorescence intensity
Supplementary Figure S5. GSH levels are not altered after 2 h […]
37 ᵒC were washed once with MLocke’s K5 buffer and the plates were placed in the holder of the fluorescence microscope (37 ᵒC) for cell imaging before and after the addition of 10 μM MCB as described in the Material and Methods section.
Panel A: representative bright field and blue fluorescence images
(GS-MCB) acquired 2 min after MCB addition of untreated cells […]
exposure was 0.7 s and the scale bar inserted = 20 μm. Panel B: means of fluorescence intensity per pixel of HT-22 cells after 2 min of incubation with MCB (10 μM). The results shown are the […]
in GSH levels between untreated cells (control) and cells treated […]
(also on this page, place not known: 0 100 200 300 400 Fluorescenece (Intensity/pixel) µM Aβ(1-42) µM Aβ(1-42) n.s. n.s. Bright Blue Fluorescence Control 2h IJMS-1941218 field 2 2 of MCB 2 2 h 5 h) […]

Substance: Aβ(1-42): Unlabeled amyloid β peptide (1-42), synthesized and supplied by StabVida
- concentration of internalized Aβ(1-42) monomers (HT-22 cells [1]; 2 h): 62 ± 11 nM
- concentration of internalized Aβ(1-42) monomers (HT-22 cells [1]; 5 h): 135 ± 15 nM
- mitochondria membrane potential (TMRE ΔF/F0 before/after FCCP) versus control (HT-22 cells [2]): not altering the mitochondria membrane potential
- GSH levels versus untreated cells (HT-22 cells [3]): not significantly different
